Data as given in patent US20090163411A1 (BOLDER BIOTECHNOLOGY, published 2009).
Residue numbers refer to the chain shown, from its start. Names and notes keep the numbering of the source.

B1: Wild type sFlt-1(fl) (receptor)
chain: SKLKDPELSLKGTQHIMQAGQTLHLQCRGEAAHKWSLPEMVSKESERLSITKSACGRNGKQFCSTLTLNTAQANHTGFYSCKYLAVPTSKKKETESAIYIFISDTGRPFVEMYSEIPEIIHMTEGRELVIPCRVTSPNITVTLKKFPLDTLIPDGKRIIWDSRKGFIISNATYKEIGLLTCEATVNGHLYKTNYLTHRQTNTIIDVQISTPRPVKLLRGHTLVLNCTATTPLNTRVQMTWSYPDEKNKRASVRRRIDQSNSHANIFYSVLTIDKMQNKDKGLYTCRVRSGPSFKSVNTSVHIYDKAFITVKHRKQQVLETVAGKRSYRLSMKVKAFPSPEVVWLKDGLPATEKSARYLTRGYSLIIKDVTEEDAGNYTILLSIKQSNVFKNLTATLIVNVKPQIYEKAVSSFPDPALYPLGSRQILTCTAYGIPQPTIKWFWHPCNHNHSEARCDFCSNNEESFILDADSNMGNRIESITQRMAIIEGKNKMASTLVVADSRISGIYICIASNKVGTVGRNISFYITDVPNGFHVNLEKMPTEGEDLKLSCTVNKFLYRDVTWILLRTVNNRTMHYSISKQKMAITKEHSITLNLTIMNVSLQDSGTYACRARNVYTGEEILQKKEITIR
B2: 20 kDa-Cys-Flt-1(3) N164C (receptor)
chain: SKLKDPELSLKGTQHIMQAGQTLHLQCRGEAAHKWSLPEMVSKESERLSITKSACGRNGKQFCSTLTLNTAQANHTGFYSCKYLAVPTSKKKETESAIYIFISDTGRPFVEMYSEIPEIIHMTEGRELVIPCRVTSPCITVTLKKFPLDTLIPDGKRIIWDSRKGFIISNATYKEIGLLTCEATVNGHLYKTNYLTHRQTNTIIDVQISTPRPVKLLRGHTLVLNCTATTPLNTRVQMTWSYPDEKNKRASVRRRIDQSNSHANIFYSVLTIDKMQNKDKGLYTCRVRSGPSFKSVNTSVHIYDKAFITVKH
modifications: 20 kDa maleimide-PEG on Cys 164
B3: sFlt-1(3) N196C (receptor)
chain: B2 chain with C138N, N170C
B4: 20 kDa-Cys-Flt-1(3) N196C (receptor)
chain: B2 chain with C138N, N170C
modifications: 20 kDa maleimide-PEG on Cys 196
B5: sFlt-1(3) N323C (receptor)
chain: B2 chain with C138N, N297C
B6: 20 kDa-Cys-Flt-1(3) N323C (receptor)
chain: B2 chain with C138N, N297C
modifications: 20 kDa maleimide-PEG on Cys 323
B7: sFlt-1(3) H338C (receptor)
chain: B2 chain with C138N, H312C
B8: 20 kDa-Cys-Flt-1(3) H338C (receptor)
chain: B2 chain with C138N, H312C
modifications: 20 kDa maleimide-PEG on Cys 338
B9: Wild type sFlt-1(3) (receptor)
chain: B2 chain with C138N
B10: sFlt-1(3) G26C (receptor)
chain: CSKLKDPELSLKGTQHIMQAGQTLHLQCRGEAAHKWSLPEMVSKESERLSITKSACGRNGKQFCSTLTLNTAQANHTGFYSCKYLAVPTSKKKETESAIYIFISDTGRPFVEMYSEIPEIIHMTEGRELVIPCRVTSPNITVTLKKFPLDTLIPDGKRIIWDSRKGFIISNATYKEIGLLTCEATVNGHLYKTNYLTHRQTNTIIDVQISTPRPVKLLRGHTLVLNCTATTPLNTRVQMTWSYPDEKNKRASVRRRIDQSNSHANIFYSVLTIDKMQNKDKGLYTCRVRSGPSFKSVNTSVHIYDKAFITVKH
B11: 20 kDa-Cys-Flt-1(3) G26C (receptor)
chain: B10 chain
modifications: 20 kDa maleimide-PEG on Cys 26
B12: sFlt-1(3) D31C (receptor)
chain: B2 chain with D5C, C138N
B13: 20 kDa-Cys-Flt-1(3) D31C (receptor)
chain: B2 chain with D5C, C138N
modifications: 20 kDa maleimide-PEG on Cys 31
B14: sFlt-1(3) N100C (receptor)
chain: B2 chain with N74C, C138N
B15: 20 kDa-Cys-Flt-1(3) N100C (receptor)
chain: B2 chain with N74C, C138N
modifications: 20 kDa maleimide-PEG on Cys 100
B16: sFlt-1(3) N164C (receptor)
chain: B2 chain

The binders below were run against Recombinant Human Vascular Endothelial Growth Factor (rhVEGF) (human, UniProt P15692-4 27-191, limits assumed) (assay: cell-based or functional assay).
Sequence of Recombinant Human Vascular Endothelial Growth Factor (rhVEGF) (P15692 other isoform, or with tags, fused parts or gaps limits assumed): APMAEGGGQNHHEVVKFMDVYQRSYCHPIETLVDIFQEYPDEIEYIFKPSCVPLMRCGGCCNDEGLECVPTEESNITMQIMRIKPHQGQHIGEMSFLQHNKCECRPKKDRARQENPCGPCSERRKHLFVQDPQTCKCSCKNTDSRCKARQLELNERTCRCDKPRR

Binder	Ave Ec50's (ng/ml); inhibition of VEGF-stimulated HUVEC proliferation, BrdU Cell Proliferation assay
B1	76 ng/mL
B2	75 ng/mL
B3	88 ng/mL
B4	59 ng/mL
B5	32 ng/mL
B6	40 ng/mL
B7	55 ng/mL
B8	19 ng/mL
B9	36 ng/mL
B10	43 ng/mL
B11	54 ng/mL
B12	60 ng/mL
B13	80 ng/mL
B14	53 ng/mL
B15	66 ng/mL
B16	103 ng/mL
